Literature values, collected in article PMC8688582.

Molecular target: CD25 (Homo sapiens) (UniProt P01589)
Test: ITC

UniProt P01589, sequence (P01589 22-240): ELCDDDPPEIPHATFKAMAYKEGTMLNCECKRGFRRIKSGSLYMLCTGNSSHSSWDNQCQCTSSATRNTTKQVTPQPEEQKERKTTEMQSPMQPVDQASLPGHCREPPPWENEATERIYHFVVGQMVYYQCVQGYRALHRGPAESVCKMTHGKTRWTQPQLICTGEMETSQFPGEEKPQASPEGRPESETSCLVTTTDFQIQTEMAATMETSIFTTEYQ

Kd: 0.01 µM
Substance: IL-2 (from UniProt P60568)
